Measurements: PMC11321638 (Advanced Science, 2024)

System: HT22 nerve cell
Type: cell-based, Mouse

Botulinum Toxin Type A [Botox]
induction of apoptosis in HT22 cells: dose‐dependent induction of apoptosis
necrocytosis of HT22 cells: neither RSI prion nor Botox induced necrocytosis
